The values below come from US20230399394A1 (SUNSHINE GUOJIAN PHARMACEUTICAL SHANGHAI, published 2023).

Substitutions are numbered along the chain they refer to. Numbers in names are those of the source.

T1: Human IL-33-his (human, UniProt O95760 112-270, biotinylated with EZ-Link NHS-Biotin where used as IL-33-his-biotin)
T1 construct: Used plain (SPR, cell assays) and biotinylated (ELISA); also called IL-33-his-biotin
T1 sequence: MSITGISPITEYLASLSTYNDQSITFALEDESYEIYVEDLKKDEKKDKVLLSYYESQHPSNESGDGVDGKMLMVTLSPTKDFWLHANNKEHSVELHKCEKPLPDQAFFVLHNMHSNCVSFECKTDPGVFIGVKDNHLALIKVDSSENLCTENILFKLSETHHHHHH

B1: 871G1-Hu1 (antibody, human IgG4 S228P, kappa, V domains shown)
VH: QVQLQESGPGLVKPSETLSLTCTVSGFSLSKYGVHWIRQPPGKGLEWIGVLRAGGTISYNSALMSRVTISEDISKSQVSLKLSSVTAADTAVYYCARDHYYYSSFGGFASWGQGTLVTVSS
VL: DIQMTQSPSSVSASVGDRVTITCLASQTIGAWLAWYQQKPGKSPKLLIYAATRLADGVPSRFSGSGSGTDFTLTISSLQPEDFATYYCQQLNSTPYTFGQGTKVEIKR
notes: Humanized; also called humanized antibody 871G1-Hu1
B2: 874F7-Hu2 (antibody, human IgG4 S228P, kappa, V domains shown)
VH: QVQLQESGPGLVKPSETLSLTCTVSGFSLSKYGVHWIRQPPGKGLEWLGVLRAGGSTGYNSALMSRLTISKDSSKSQVSLKLSSVTAADTAVYYCVRDHYYYSSYGGFVYWGQGTLVTVSS
VL: B1 VL with N92D, T94S
notes: Humanized; also called humanized antibody 874F7-Hu2
B3: 864F3-Hu5 (antibody, human IgG4 S228P, kappa, V domains shown)
VH: B1 VH with I48L, V67L
VL: B1 VL with V11L, G30A, A31T, N92Y, S93N
notes: Humanized; also called humanized antibody 864F3-Hu5
B4: 871G1-Hu2 (antibody, human IgG4 S228P, kappa, V domains shown)
VH: B1 VH with I48L, V67L
VL: B1 VL
notes: Humanized; also called humanized antibody 871G1-Hu2
B5: 871G1-ch (antibody, human IgG4 S228P, kappa, V domains shown)
VH: QVHLKESGPGLVAPSQSLSITCNVSGFSLSKYGVHWIRQTPGRGLDWLGVLRAGGTISYNSALMSRLSISEDISKSQVFLKMNDLQTDDSAIYFCARDHYYYSSFGGFASWGQGTLVTVSA
VL: DIQMTQSPASQSASLGESVTITCLASQTIGAWLAWYRQQPGKSPQLLIYAATRLADGVPSRFSGSGSGTKFSFKINNLQAEDFVIYYCQQLNSTPYTFGGGTRLEMRT
notes: Chimeric: human IgG4 (S228P) and human kappa constant regions; also called chimeric antibody 871G1-ch
B6: 874F7-ch (antibody, human IgG4 S228P, kappa, V domains shown)
VH: QVQLKESGPGLVAPSHSLSITCNVSGFSLSKYGVHWIRQIPGRGLDWLGVLRAGGSTGYNSALMSRLSISKDSSKSQVFLKMNDLRTDDTAVYFCVRDHYYYSSYGGFVYWGQGTLVTVSA
VL: B5 VL with K70E, I85S, N92D, T94S
notes: Chimeric: human IgG4 (S228P) and human kappa constant regions; also called chimeric antibody 874F7-ch
B7: 864F3-Hu1 (antibody, human IgG4 S228P, kappa, V domains shown)
VH: QVQLQESGPGLVKPSETLSLTCTVSGFSLTNYGVHWIRLPPGKGLEWIGVIRAGGSSDYNSALMSRVTISKDNSKSQVSLKLSSVTAADTAVYYCARDHYFSNSYGGSPYWGQGTLVTVSS
VL: B1 VL with V11L, G30A, A31T, N92Y, S93N
notes: Humanized; also called humanized antibody 864F3-Hu1
B8: 871G1-HuG (antibody, human IgG4 S228P, kappa, V domains shown)
VH: B1 VH with E71V, I73T, S76N, V78F
VL: B1 VL
notes: Humanized; also called humanized antibody 871G1-HuG
B9: 864F3-HuG (antibody, human IgG4 S228P, kappa, V domains shown)
VH: B7 VH with L39Q, K71V, N73T, S76N, V78F
VL: B1 VL with V11L, G30A, A31T, N92Y, S93N
notes: Humanized; also called humanized antibody 864F3-HuG
B10: 864F3-Hu3 (antibody, human IgG4 S228P, kappa, V domains shown)
VH: B1 VH with E71V, I73T, S76N, V78F
VL: B1 VL with V11L, G30A, A31T, N92Y, S93N
notes: Humanized; also called humanized antibody 864F3-Hu3
B11: 864F3-Hu2 (antibody, human IgG4 S228P, kappa, V domains shown)
VH: B7 VH with I37V, I48L, V67L
VL: B1 VL with V11L, G30A, A31T, N92Y, S93N
notes: Humanized; also called humanized antibody 864F3-Hu2
B12: 874F7-HuG (antibody, human IgG4 S228P, kappa, V domains shown)
VH: B2 VH with L48I, L67V, K71V, S73T, S76N, V78F, V96A
VL: B1 VL with N92D, T94S
notes: Humanized; also called 874F7-Hµg; humanized antibody 874F7-HuG

The target in one experiment is T1, Human IL-33-his. Description: SPR Biacore 8K, antibody captured on Protein A/G chip, IL-33-his as analyte, 1:1 model. Here is the method:
A chip with covalently coupled Protein A/G (purchased from GE Healthcare, catalog number BR-1005-30) was used to capture each antibody to be tested, and the relevant operating parameters were as follows: The antibody concentration was […], the contact time was 75 s, the flow rate was […], and the regeneration contact time was 30 s. The IL-33-his antigen was diluted with HBS-EP pH7.4 buffer solution (purchased from GE Healthcare, catalog number BR-1006-69). The maximum concentration was 50 nM, and diluted to 0.39 nM by two-fold dilution. Duplicate wells and 0 concentration point well were set, and 6M guanidine hydrochloride solution was used as the regeneration buffer. The sample was injected on Biacore 8K according to the following parameters, the binding time was 180 s, the dissociation time was 900 s, the flow rate was 30 μL/min, and the regeneration contact time was 30 s. After running, Biacore 8K Evaluation Software was used to analyze the data according to the “1:1 binding kinetics model”, and the binding kinetics parameters of each antibody to IL-33 were obtained.
On the technique in general: SPR reads the build-up and loss of mass on a sensor chip optically.
Consider B1, for which the Kd came out at 1.71 nM, the off-rate (koff) came out at 0.000504 s⁻¹ and the on-rate constant (kon) came to 295000 M⁻¹ s⁻¹.

B2: the affinity, expressed as Kd, was 2.97 nM; the koff turned out to be 0.000576 s⁻¹; the kon worked out at 194000 M⁻¹ s⁻¹.

The molecule B3 registered a Kd of 1.36 nM, an off-rate (koff) of 0.000439 s⁻¹ and an on-rate constant (kon) of 323000 M⁻¹ s⁻¹.

Regarding B4, the Kd was 1.76 nM, the off-rate (koff) is 0.000527 s⁻¹ and the on-rate constant (kon) is 300000 M⁻¹ s⁻¹.

In another experiment the target is T1, Human IL-33-his. Description: competition ELISA as Example 10, ST2-Fc on plate; competitor ST2-Fc. The protocol:
(§1) ST2-Fc protein was diluted to 1 μg/mL with ELISA coating solution to coat ELISA plate with 100 μL/well. The plate was placed in a wet box at 4° C. for 16 h for coating. The ELISA plate was washed 3 times with PBST, and then was blocked with 2% BSA prepared in PBS at 200 μL/well at room temperature for 2 h. The plate was washed once with PBST, and was patted dry to remove the excess blocking solution. Each monoclonal antibody was diluted with 1% BSA prepared in PBST in a 3-fold gradient. The highest concentration of antibody was 10 μg/mL, and the antibody was diluted for 11 gradients. The diluted antibody was mixed 1:1 with 10 ng/ml IL-33-his-biotin, and then the mixture was added into the ELISA well at 100 μL/well. The plate was incubated at room temperature for 1 h. Each concentration was added to duplicate wells in parallel (maximum final concentration of antibody was […], final concentration of IL-33-his-biotin was 5 ng/mL). Unbound or non-specifically bound primary antibodies were washed out. According to the instructions of the antibody, HRP labeled streptavidin secondary antibody was diluted to an appropriate concentration with antibody diluent solution, then it was added to ELISA plate with 100 μL/well, and was incubated at room temperature for 1 h. The ELISA plate was washed with PBST for 5 times, and was patted dry on absorbent paper to remove excess liquid. TMB developing solution was added with 100 μL/well for development to an appropriate degree. 2M H₂SO₄ was added with 70 μL/well to terminate development, and the absorbance was measured at 450 nm on a multifunctional microplate reader. The data were analyzed.
The blocking effect of the above humanized antibodies on the binding of IL-33 to its receptor ST2 was determined by the ELISA method, and the relevant experimental methods were referred to Example 10.
B1 displayed a half-inhibitory concentration (IC50) of 0.404 nM.

The molecule B2 had an IC50 of 0.35 nM.

B3 showed an IC50 of 0.473 nM.

In turn, B4 showed an IC50 of 0.361 nM.

The target of another experiment is T1, Human IL-33-his. Description: competition ELISA, antibody mixed with IL-33-his-biotin, ST2-Fc on plate; competitor ST2-Fc. The protocol: as §1
A general note: In an ELISA, binding on a coated surface is turned into a signal by an enzyme label.
Turning to B5, the half-inhibitory concentration (IC50) is 0.853 nM.

As for B6, the concentration for half-maximal inhibition (IC50) worked out at 0.634 nM.

A further experiment has as its target T1, Human IL-33-his. In words: ELISA, IL-33-his-biotin on streptavidin plate, anti-human Fc detection. Here is the method:
SA protein was diluted to 2 μg/mL to coat ELISA plate at 100 μL/well overnight at 4° C. The plate was washed with PBST (PBS containing 0.05% Tween20) for 3 times, and blocked with 2% BSA prepared in PBS at 200 μL/well, at room temperature for 2 h. After the plate was washed twice with PBST, IL-33-his-biotin protein was diluted to 1 μg/mL with 1% BSA prepared in PBST, and was added to ELISA plate at 100 μL/well. The plate was incubated at room temperature for 1 h, and each monoclonal antibody was diluted with 1% BSA prepared in PBST in a 3-fold gradient. The highest concentration of antibody was 10 μg/mL, and the antibody was diluted for 12 gradients. Each diluted monoclonal antibody was added to ELISA wells with 100 μL/well, and the plate was incubated at room temperature for 1 h. Each sample was added to duplicate wells in parallel. The plate was washed with PBST for 3 times, and HRP-anti human IgG Fc secondary antibody prepared with PBST was diluted at an appropriate ratio, and was added to ELISA wells at 100 μL/well. The plate was incubated at room temperature for 1 h. After washing with PBST for 3 times, TMB developing solution was added at 100 μL/well. When the development met expectations, 2M H₂SO₄ was added to terminate the chromogenic reaction at 70 μL/well. Each reaction solution was shaken uniformly and OD450 nm was read on a microplate reader. The data was analyzed and EC₅₀ was calculated.
B5 had a concentration giving a half-maximal response (EC50) of 0.178 nM.

For B6, a half-maximal response (EC50) required 0.144 nM.

In another experiment the target is T1, Human IL-33-his. In words: ELISA as Example 9, IL-33-his-biotin on streptavidin plate.
In turn, B1 gave a 50% effective concentration (EC50) of 0.191 nM.

With B7, the EC50 was 0.249 nM.

In the case of B2, the midpoint of the response, the EC50, lay at 0.136 nM.

The molecule B8 showed an EC50 of 0.187 nM.

In the case of B9, the 50% effective concentration (EC50) was found to be 0.76 nM.

On to B3, for which the EC50 was determined as 0.146 nM.

On to B10, for which the midpoint of the response, the EC50, lay at 0.138 nM.

Molecule B11 had a concentration giving a half-maximal response (EC50) of 0.181 nM.

Turning to B12, the EC50 was determined as 0.17 nM.

On to B4, for which the half-maximal effective concentration (EC50) was determined as 0.176 nM.

With B5, a half-maximal effect (EC50) was put at 0.255 nM.

B6: the EC50 was 0.177 nM.

A further experiment has as its target T1, Human IL-33-his. In words: cell-based or functional assay.
As to B1, the “IC50 of inhibition of IFNγ secretion by NK cells induced by IL-33” value (from here on “IC50 of inhibition of IFNγ secretion”) is 0.851 nM, the “IC50 of the inhibitory effect on IL-6 expression in HUVEC cells induced by IL-33” value was determined as 0.21 nM and the “IC50 of the inhibitory effect on the IFN-γ secretion of PBMC induced by IL-33” value amounted to 1.4 nM.

Regarding B2, the “IC50 of inhibition of IFNγ secretion” value was found to be 1.56 nM, the “IC50 of the inhibitory effect on IL-6 expression in HUVEC cells induced by IL-33” value was determined as 0.05 nM and the “IC50 of the inhibitory effect on the IFN-γ secretion of PBMC induced by IL-33” value came to 1.74 nM.

Take B3: the “IC50 of inhibition of IFNγ secretion” value is 1.02 nM, the “IC50 of the inhibitory effect on IL-6 expression in HUVEC cells induced by IL-33” value stood at 0.147 nM and the “IC50 of the inhibitory effect on the IFN-γ secretion of PBMC induced by IL-33” value amounted to 0.839 nM.

As for B4, the “IC50 of inhibition of IFNγ secretion” value is 0.9 nM, the “IC50 of the inhibitory effect on IL-6 expression in HUVEC cells induced by IL-33” value was found to be 0.175 nM and the “IC50 of the inhibitory effect on the IFN-γ secretion of PBMC induced by IL-33” value is 1.06 nM.

As usually defined, the Kd is the equilibrium constant for the complex coming apart. A low value points to a tighter complex. Usually koff stands for a measure of how fast the partners let go of each other. Low values mean a long-lived complex, high ones a short-lived complex. As a reminder, the kon is a measure of how fast the partners come together. Read a high kon as faster complex formation. A word on the IC50: it is the point on the concentration scale where inhibition reaches its midpoint. As a reminder, the EC50 is the concentration that produces a half-maximal response. The low end stands for higher potency in that assay, the high end for lower potency in that assay.
